Results published in paper PMC3824165.

How the values were obtained:
[1] = molecular target: host cellular β-tubulin (293T cells) (human (endogenous in 293T)) (UniProt P07437); experiment: co-IP
[2] = molecular target: host cellular β-tubulin (Vero cells) (African green monkey (endogenous in Vero)); experiment: co-IP

Substance	ratio of precipitated TgRON4 to TgRON4 in total membrane fraction [1] [%]	ratio of precipitated TgRON4 to TgRON4 in total membrane fraction [2] [%]
3xFLAG-tagged C-terminal half of TgRON4 (TgRON4B) (domain or fragment)	0.82	0.56
3xFLAG-tagged full-length TgRON4 lacking its putative signal sequence (TgRON4-Full) (from UniProt B6KJ32 27-984) (natural protein)		1
